In the supplement of paper PMC12042874 one finds amyloid nucleation score data, which are given here for 141 substances.

± gives the uncertainty stated by the source.

This data set can be described thus: amyloid nucleation score (Sup35N fusion, yeast selection) (log enrichment); library NNK1; higher = more nucleation; inactive = no reads after selection. The gist of the method: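 Random libraries were run with three technical output replicates. In each, psi-negative yeast expressing Sup35N fused to peptides of 20 random codons were induced 24 hours with 100 μM copper sulfate and grown 7 days at 30°C on medium lacking adenine and uracil, and input and output plasmid inserts were Illumina-sequenced. The nucleation score is the DiMSum log enrichment of output over input reads, centred on the mode score of non-aggregating sequences, and sequences under 100 input reads were excluded.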

In turn, LAYVHTVKVDGPWKHMNVWY showed an amyloid nucleation score of 1.22 ± 0.54. In turn, RWAVLACFCMGD registered an amyloid nucleation score of 0.434 ± 0.81. With RVRLVWSSCQGDEGFYGLCP the figure was 1.36 ± 0.18; with TSRNW, -0.626 ± 1.1. On to YSVPVCGDMLTGWYCNKYKY, for which the amyloid nucleation score entry was “inactive”. The same measure for TFHWMKDAALSQSSVKRTMA: 0.359 ± 0.59. Substance ILSFMYYDTHAPLKFAVQVK came in with an amyloid nucleation score of 0.296 ± 0.45. As to LMGNEL, the amyloid nucleation score was -0.396 ± 0.4.

As for NCRMTGCLSQRRQKECCNRI, the amyloid nucleation score was -0.755 ± 0.51. The same measure for TMPNSFRWCLNGRVRRDRFC: -0.215 ± 0.97.

With RKLFAY, the amyloid nucleation score entry was “inactive”. With KYVCGLTDTVIRGMLKVIRA the figure was 0.559 ± 0.27; with IVTKGGLNNVCAVYLCYVGS, 6.46 ± 0.065; with IRMVFAMVSYSCDYRATAGT, 2.65 ± 0.18. With CMHEKIYIITCRSCGLREIR the figure was 0.164 ± 0.39. With IRGLLRFL the figure was 0.007 ± 0.35; with DSQMYTMH, -0.054 ± 0.71. Substance RGVARWRCGNKICNA returned an amyloid nucleation score of 0.078 ± 0.47. In the case of LTLALESLEPIRLTRNMWAL, the amyloid nucleation score is -0.411 ± 0.65.

In turn, SYGDQSVEKSLRSTATPDPQ came in with an amyloid nucleation score of 0.105 ± 0.35. QSYTLYMMSLFKS showed an amyloid nucleation score of -0.34 ± 0.55. With RVLCCRYN the figure was 0.19 ± 0.51; with NFTSRYEANFTVFSFRAWRL, 0.297 ± 0.36. With VRVLGVIMYARLLPVGLWGY the entry was “inactive”; with TVCRSLSRLERHLR, 0.068 ± 0.63. As for ITLVDVVG, the amyloid nucleation score came out at 0.082 ± 0.34. With LHSQKGILSLSSPI, the amyloid nucleation score is -0.223 ± 0.32. The same measure for SCKPGPIVSLDFVFVVYPWE: 0.002 ± 0.9; for FFLWGRW: -0.341 ± 0.43; for TKQFEPFCLRLSVVMLLLQE: 0.034 ± 0.45. VFTLPLDWQKRCGYDSLRFP came in with an amyloid nucleation score of 0.018 ± 0.44. The same measure for ENRFARCYRVV: 2.1 ± 0.1.

Substance YFLSHRCTGGLPIS yielded an amyloid nucleation score of -0.028 ± 0.9. The same measure for RVLLSSVSDM: -0.766 ± 2.4; for NRTIFVVRHTDFGYLA: 0.661 ± 0.75. As to QYLLFGYNYNAWERRDLALW, the amyloid nucleation score amounted to 0.354 ± 0.22. The same measure for HNWCYQNKGHVRGNKLCFRY: -0.112 ± 0.63.

IGGFASLGYGYIRDVIRVTS yielded an amyloid nucleation score of 0.493 ± 0.45.

Regarding KTRHMREDGQCVYKHEMERM, the amyloid nucleation score came out at 0.577 ± 0.19. Turning to SVANGALSRLAYIKRYRVWW, the amyloid nucleation score was 0.522 ± 0.45. The same measure for NMCNLSFLQ: 0.104 ± 1.1; for GRGKPMTLASKFIAGRFVF: 0.521 ± 0.97. PFRGDGIGYISVGGWFVQDN gave an amyloid nucleation score of -1.51 ± 2.4. With SLRSQCGSVNLIFMVMFSVW the figure was -0.236 ± 1.2; with LRRLEGLMSLGSFKFSPYGP, 0.227 ± 1.2; with VESFYVSIFGGGLRLKCSKS, 0.514 ± 0.46. RYRSVVIPRVHAIEVIYAAC: the amyloid nucleation score was -0.378 ± 0.97.

For HSRSCKSFLI, the amyloid nucleation score entry is “inactive”.

Substance VRSPDSLVVWDLVRH showed an amyloid nucleation score of -0.367 ± 0.49. For ITFTHDNISYKIRTPFAKSL, the amyloid nucleation score worked out at 1.55 ± 0.26. The same measure for SPLFLVWLTCYKQDPFILVW: “inactive”; for MFGAHLA: “inactive”. Substance FHIQEANIFRE had an amyloid nucleation score of -0.17 ± 0.24.

Substance SLYDLTDTAICFAFFYFD yielded an amyloid nucleation score of 7.95 ± 0.082. With GTGHVFQCCRMTLLQSSLDG the figure was -0.832 ± 0.88; with AKYPMQRLLRFLFLVVR, 0.374 ± 0.48.

SNWTPCQSESP gave an amyloid nucleation score of -0.311 ± 0.55. With VFTSAD the figure was 0.093 ± 0.39. For SRRNYWVFGGHMFND, the amyloid nucleation score is -0.134 ± 1.7.

As to TFVVN, the amyloid nucleation score is 0.677 ± 0.3. In turn, PLFCNNWSVLEFERRLGDMH showed an amyloid nucleation score of 1.03 ± 0.24. For the substance VYAYTRY, the amyloid nucleation score was 0.194 ± 0.68. The same measure for FTSVITLMFNYNTFWKKSSY: 1.12 ± 0.27; for HTFHVL: “inactive”. YLASFMNLAISVGLVDGLCG yielded an amyloid nucleation score of -1.29 ± 1.7. With EVCWNSCMVADSVSVISNPA the figure was -0.231 ± 0.27; with DYWRHSHVLHSPTKRKNRLV, 0.223 ± 0.34; with VFNCWCLTEFFVMYGIVCQK, 4.52 ± 0.1. With FMFYTYHVNSYFSILCSVSN the figure was 0.655 ± 0.46; with ASEVCKY, 0.375 ± 0.79. HRFDW displayed an amyloid nucleation score of 1.07 ± 0.48. The same measure for FQNELCKTDIWFRVREWESE: 0.196 ± 1.2. In turn, GNVLDFCPWLVGLLCHGGGV yielded an amyloid nucleation score of 0.149 ± 0.35. For the substance RIIGHLKFIMIRNNVSLCDM, the amyloid nucleation score was -0.146 ± 0.5. With RHLMLVKYVFGSRELGL, the amyloid nucleation score came out at 0.169 ± 0.25. Regarding YIGECLRKLIRCAHKDCEGY, the amyloid nucleation score was -1.49 ± 1.2. As to TMSSFDGPSV, the amyloid nucleation score is -2.58 ± 1.8.

ILTDTSMGTSAVHRARQTLK yielded an amyloid nucleation score of 0.066 ± 0.48.

In turn, MSRIVF returned an amyloid nucleation score of -0.003 ± 0.71. Turning to LWPKVLMVFTSM, the amyloid nucleation score came to 1.67 ± 0.15.

As to MFTNLQIWWDSMACYFWDVF, the amyloid nucleation score amounted to 0.923 ± 0.48. With LVVAVW the figure was 0.269 ± 0.35; with LRTARNMGYICSIVSFNNLN, 5.13 ± 0.055. The same measure for VDRLNFLSLSYENFSGSSGE: 4.7 ± 0.064; for SRNLLPSDTSHQVMYPVSTK: 0.568 ± 0.28. With LLDRRVGKLGLDCMLLDLCQ the figure was 0.752 ± 0.42; with LKRVCNS, 0.002 ± 0.63.

For TLPYSKKSLTQFRRGAKICY, the amyloid nucleation score was found to be 0.588 ± 0.56. With NTQTFEAFSKSFMDLIVRRF the figure was -0.735 ± 1.2. For REDPIALGSRWTRPISKTLG, the amyloid nucleation score came to 0.734 ± 0.97. The same measure for IVEGVPGTRPHVLAKCSDEC: 0.232 ± 0.3; for LGLGDGLLVRFNKFCGLMGR: -0.153 ± 1.2.

For LWVFRCARLKVWQPRKGWGQ, the amyloid nucleation score was found to be 0.844 ± 0.48. SVARFNVWVVLSSRNVTCQS showed an amyloid nucleation score of 1.82 ± 0.12. Consider NFGAQRYHSRLLL, for which the amyloid nucleation score was -0.223 ± 0.59. The same measure for LSLGLSGLVQPSDGTVG: -0.284 ± 0.7. FTVVWGHQVYVMTSPFSSAG had an amyloid nucleation score of 5.76 ± 0.062.

As to RLIIME, the amyloid nucleation score result was “inactive”. Turning to VHASYIVRIRHLSGILEGAV, the amyloid nucleation score worked out at 0.369 ± 0.46. Substance ELCAQYVIFSFASSRSYDSY displayed an amyloid nucleation score of 0.579 ± 0.28. In the case of FLYWLVDKLG, the amyloid nucleation score came out at 0.37 ± 0.51. The same measure for WDLLLWSVNRDRRV: 1.47 ± 0.55. With RGGTMGYILDNKCQNFVGTW the entry was “inactive”; with LWLTPTQCMTHNFPLLTPRR, -0.354 ± 0.47. With SRVQYLILDIMVTRYGASTS the figure was -0.262 ± 0.53; with CFRFDYVGTYKHMPFR, 4.02 ± 0.16; with TLVLSLAHPCASGNKPDKSG, 0.863 ± 0.32.

Regarding KYENGCTDTWGMTVASPLIK, the amyloid nucleation score is -0.515 ± 1. As for FWRMTFQRHEKLSHQ, the amyloid nucleation score is -0.28 ± 0.38. Turning to RPSTLCFTIIRVYKLSRSPT, the amyloid nucleation score came to 2.65 ± 0.074. The same measure for NSGNHDSCKFFGLLVRQMVG: 0.529 ± 0.46. In the case of CVGGWWKTRHMSIWNWIWWL, the amyloid nucleation score was determined as 0.197 ± 0.9.

In the case of SLNKRWCLRTQFGVAMVRTP, the amyloid nucleation score turned out to be 0.416 ± 0.99. The same measure for VARHISAVSAWGACYRWCFR: 0.706 ± 0.51; for RKRRVSSLPEMGHSGSEYIG: 0.412 ± 0.67. With VFGVVSFLHDFNFGKAYFAV the figure was 0.191 ± 0.4. The same measure for KANCCCVSHWCCGYMQ: 4.63 ± 0.052; for SRYYLSRPVLRYG: 0.546 ± 0.42; for SVLCELRV: -0.182 ± 0.36. MWRKHR yielded an amyloid nucleation score of -0.543 ± 0.65. The same measure for YDLGMLLF: 0.812 ± 0.77. YRYSVQVLNCAKGAENGVII displayed an amyloid nucleation score of -0.152 ± 0.32. Regarding RLHAVTSLCR, the amyloid nucleation score came out at 5.42 ± 0.1. NRQSNSVVYNARQETFIRHL registered an amyloid nucleation score of 3.39 ± 0.14.

As for TTVKYLWLYLGFVLGQGVNG, the amyloid nucleation score is -0.303 ± 0.25. Substance KLLNRTMRTMVSVSRVM gave an amyloid nucleation score of 0.738 ± 0.72. Regarding LPDCINNVQNGYSKLSEGLS, the amyloid nucleation score was 0.792 ± 1. As for ILVGTWSLGSRAVEGNNWDH, the amyloid nucleation score was -0.357 ± 0.49. With KAFATMLNRLEVGTLGRG the figure was -1.36 ± 1.9; with ICYIPADFVKPAMVNLYLAM, 2.99 ± 0.11; with HLSLVNFCMSVSLESWYEWM, 0.819 ± 0.44.

In turn, SCAASGNLYVSSAGGVRGKR displayed an amyloid nucleation score of -0.734 ± 0.46. For the substance WLRRCEGGKMSYSSLSTVES, the amyloid nucleation score was -0.563 ± 0.45.

Take RYNTPNGVYICLNA: the amyloid nucleation score was -1.03 ± 0.39. Consider CPRIYGVRLKSSRLPAGVYV, for which the amyloid nucleation score amounted to 1 ± 1. For LGPNW, the amyloid nucleation score is -0.356 ± 0.53. In turn, TVKCILYSRFHKGCGWRCER came in with an amyloid nucleation score of 3.15 ± 0.14. With HINFIYRLRSFLQSCKNFSS the figure was -1.23 ± 2.1; with HRCPLTGFSSL, 0.022 ± 0.45. As to VSHDGGLLRVWFMLALREGN, the amyloid nucleation score was 0.003 ± 0.49. Substance RNSMQILASLNNMDQRPLWR gave an amyloid nucleation score of 1.51 ± 0.51.
